Consider 1 molecule from PMC12299175 (2025).

The assay deals with synthetic peptide of stem helix (1141-1161) of SARS-CoV-2 WT S with biotin at C terminus (SARS-CoV-2, UniProt P0DTC2 1141-1161, biotin at C terminus). In words: BLI. A general note: Biolayer interferometry detects binding as a change in optical thickness at a sensor tip.

Bounds are passed on as bounds.

B1: S2P6 recombinant mAb with human IgG1 constant region (antibody, V domains shown)
VH: EVQLVQSGAEVKKPGASVKVSCKASGYTFTSQYMHWVRQAPGQGLEWIGIINPSGVHTSYAQKFQGRVTLTRDTSTSTLYMELSSLRSEDTAVYYCARGSPKGAFDYWGQGTLVTVSS
VL: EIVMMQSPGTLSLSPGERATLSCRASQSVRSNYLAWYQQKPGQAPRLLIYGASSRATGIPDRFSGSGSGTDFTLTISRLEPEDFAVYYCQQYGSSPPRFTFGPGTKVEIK
On to B1, for which the koff – broadly, the first-order rate constant of dissociation – is under 1e-06 s⁻¹.
